According to the DeepSol protein solubility set:

Assay: soluble on expression in E. coli; label from the status in PepcDB or PDB records

Row | Sequence | soluble on expression in E. coli
1 | MSKFPVPLRTIGGLRPSTTAAISAANIGFTQSSRALSTGAAAKSSGLVGQVARQYPNAAAFSIKQVRLYSSGNLPKHNRVALPALSPTMELGTVVSWQKKEGDQLSEGDLLCEIETDKATMGFETPEEGYLAKILIQEGSKDVPIGKLLCIIVDNEADVAAFKDFKDDGASSGGSAPAAEKAPEPAKPAASSQPSPPAQMYQAPSVPKSAPIPHSSSGRVSASPFAKKLAAENGLDLSGVSGSGPGGRILASDLSQAPAKGATSTTTQAVSGQDYTDIPLSNMRKTIAKRLTESKSTIPHYYLTSEIQLDTLLQVREKLNGLLAKGTSGQATKISINDFIIKASALACQRVPEANSYWMDSFIRENHHVDVSVAVSTPAGLITPIIFNAHAKGLATIASEIVELAQRAREGKLQPHEFQGGTFTVSNLGMFGSVSDFTAIINPPQSCILAIGGASDKLVPDEAEGYKKIKTMKVTLSCDHRTVDGAVGAVWLRHFKEFLEKPHTMLL | not soluble
2 | MSKIETPVMTSLQTTAEKMMKDLNVPGAAVAVIKDGEVIISEGFGYRNIETKEAVTPNTRFAIGSSTKAFGTLSLSLLAQQKKFNWDTPIQSYIPNFTLSELLASSQVTGRDLASHRTGVSRHEALWYSSSLSRKDLVEKIKHLPLDAPFRTAFLYNNLMYATISYIVENITNQTWEQYTTEHILEPLNMRHTNFSVNDSQTTDDYALPYIENDGEIKAVPFRNIDTVGAAGCINSTIEDMANWVLLHLNEGKFGDHELISSELLQQMYTPHNSIPDQPVLSLPESPLNSYGLGWFISAYRGKKVIHHGGNIDGFSALVSFIPTENIGLVILTNAGGTLLPTYLANQIYDELLELESIDWHKRAVEDTKKMKEMMKEATESLPEQIKGTTPSHKLEDYTGTFEHPAYGTLQVYKRDDSLYVQFMEMDIQLGHHHYDIFSAKVDLFQMKMSLLFAYEMNVSGEFPSLQLHVPATLSTQPLTFKKIK | not soluble
3 | MSKILVIAEHRRNDLRPVSLELIGAANGLKKSGEDKVVVAVIGSQADAFVPALSVNGVDELVVVKGSSIDFDPDVFEASVSALIAAHNPSVVLLPHSVDSLGYASSLASKTGYGFATDVYIVEYQGDELVATRGGYNQKVNVEVDFPGKSTVVLTIRPSVFKPLEGAGSPVVSNVDAPSVQSRSQNKDYVEVGGGNDIDITTVDFIMSIGRGIGEETNVEQFRELADEAGATLCCSAPIADAGWLPKSRQVGQSGKVVGSCKLYVAMGISGSIQHMAGMKHVPTIIAVNTDPGASIFTIAKYGIVADIFDIEEELKAQLAA | soluble
4 | MSKKCLITGGAGFIGSHLAEELVGRGYNVTIVDNFYKGKNKYHDELMKEIRVIPISVLDKNSIYELVNQHDVVFHLAAILGVKTTMEKSIELIETNFDGTRNILQAALKGKKKVVFASTSEVYGKAKPPFSEEGDRLYGATSKIRWSYAICKTLEETLCLGYALEGLPVTIVRYFNIYGPRAKDGPYAGVIPRFISAALQGEDILVYGDGEQTRCFTYVSDAVEATIRAMDEKVNGEIINIGSENEKSIKEVAEVIKKLTDSSSKIVQVPFEEVYPHGFEEIPNRRPDVTKLKDLVQFQAKVTWEDGLKETIKWFREEDNG | soluble
5 | MSKKTLSTVNYQLSTDTMCLAIPGQVIEIREENGLKMGTVDISGALTKACLEYVPEIAIGQYTIVHAGFALKIIDEKEAAESLKLWDELIKSGAFDVDGELPPSPIQKPEA | not soluble
6 | MSKMTRHDAQLYELKKKIEELKKIRGRGTELISLYIPAGYDLSKVMQQLREEYSTAQNIKSKTTRKNVLGALERAMQHLKLYKQTPENGLALFVGNVSEIEGNTDIRLWAIIPPEPLNVRLYRCDQTFVTEPLEEMLRVKDAYGLITVEKNEATIGLLRGKRIELLDELTSNVPGKTRAGGQSARRYERIREQETHEFMKRIGEHANRAFLPLLEKGELKGIIIGGPGPTKEEFVEGEYLHHELKKKILGVVDISYHGEYGLRELVEKASDILRDHEVIREKKLVNEFLKHVVKDTGLATYGEREVRRALEIGAVDVLLISEGYNKVRVRVKCNHCGWEELKTMSEEEYEVYRKKITKCPKCGSQNLTIEKWDVAEELIKMAEEAGSDVEIISLDTEEGQQFYRAFGGLGAILRFKI | soluble
7 | MSKNCKSCKDLKNRGIDVDCCFEIGDKECASLGDDKGFNGKKNDCQDMHDLNDCLLGRADSALDIHDDCDWKGYLKKLVSTLYNLQKMTICAICGIWKKIHWIEEQIEKIWKKIAKMEDDIDNIASQNWEINTRYGIQESTKGMSVSINRGNGDFIFRWKDWGDAEQTQYLGEGEIRGTVNFGMRPSSNASFDWQVRDVVIQNLSYKTNNIRSVPFTLHLYLTRAGEQEIYTKSHDTTKSFNDNINKTLKLNNNGNVGISSSSGWLQFLEFFNDGPVADDRANLQIEFKNNGKPKPPRYI | not soluble
8 | MSKNIKTPTNQKVLTNVAVVRMKKTGKRFEIACYKNKVVNWRNKSEKDIDEVLQTHTVFSNVSKGQLSKKEELIAAFGIEDQLEICKIILDKGDLQVSEKERQAASDQSLKEVSQLIASMVVNPETKRPVPPSVIDKALQEMHFSLKPNRSSKQQALDAIPKLRETLKIERAKMKIRVAIPTKEAKSVHTKLKTLFSDVEVDDWQDGSLEMVGLIEPGSFRALDDLVRNETKGHGRLEILSLKDVVEGELQIS | soluble
9 | MSKNVGKLVKIWNESEVLVDRKSKFQARCCPLQNQKDIPSILQELTQNNKSVSKASHMHMYAWRTAEVSNNLHLQQEQKKKGNKANKSNNSHVNKSRNITVQPKNIEQGCADCGEAGAGQRLLTLLERANIFNVLVIVTRWYGGTPLGSSRFRHISTCAVETLKKGGFLP | soluble
10 | MSKRNTQQRRHNIIADLNAQGEVSVDSLAKQFDTSEVTIRKDLAALETSGLLLRRYGGAVALPSEITEAKVDQLSQQKLHIAKKAAMLIRDHNRIIIDSGQTTSALVSELANKKGLVVMTNALSIANEIHALENEPTLLMTGGTWDATSEAFQGQVAEQVLRSYDFDQLFIGADGIDIKRGTTTFNELIGLSRVMAEVAREVIVMVESAKITKKIPNLELNWQQIHTVITDDGLSEEMRIALTEQGVKLIIAKGLEHHHHHH | soluble
11 | MSKRRVVVTGMGMLSPVGNTVESSWKALLAGQSGIVNIEHFDTTNFSTRFAGLVKGFDCEQYMSKKDARKMDLFIQYGIAAGIQALEDSGLEVNEENAARIGVAIGSGIGGLELIETGHQALIEKGPRKVSPFFVPSTIVNMIAGNLSIMRGLRGPNIAISTACTTGLHNIGHAARMIAYGDADAMVAGGAEKASTPLGMAGFGAAKALSTRNDEPQKASRPWDKDRDGFVLGDGAGIMVLEEYEHAKARGAKIYAEVVGFGMSGDAYHMTSPSEDGSGGALAMEAAMRDAGVTGEQIGYVNAHGTSTPAGDVAEVKGIKRALGEAGTKQVLVSSTKSMTGHLLGAAGSVEAIITVMSLVDQMVPPTINLDNPEEGLGVDLVPHVARKVESMEYAMCNSFGFGGTNGSLIFKRM | not soluble
12 | MSKSVSIPQALSDLKRTSLRRLSSARGVGNKKTVVSTSTPLSGFVILVEREEKVVRLYGTAAERAGLSIGDEIVGVNDMKIEGKSYEEVTTYIQECIRRKIIQLKVRRRALEIPAENEASVFNCTNSNRMITDAYLVSVDKDHIKEVTKRLKK | not soluble
13 | MSKTVLILGAGVGGLTTADTLRQLLPPEDRIILVDRSFDGTLGLSLLWVLRGWRRPDDVRVRPTAASLPGVEMVTATVAHIDIAAQVVHTDNSVIGYDALVIALGAALNTDAVPGLSDALDADVAGQFYTLDGAAELRAKVEALEHGRIAVAIAGVPFKCPAAPFEAAFLIAAQLGDRYATGTVQIDTFTPDPLPMPVAGPEVGEALVSMLKDHGVGFHPRKALARVDEAARTMHFGDGTSEPFDLLAVVPPHVPSAAARSAGLSESGWIPVDPRTLSTSADNVWAIGDATVLTLPNGKPLPKAAVFAEAQAAVVAHGVARHLGYDVAERHFTGTGACYVETGDHQAAKGDGDFFAPSAPSVTLYPPSREFHEEKVAQELAWLTRWKTLEHHHHHH | not soluble
14 | MSKVNEITRESWILSTFPEWGTWLNEEIEQTVVEPNTFSMWWLGCTGIWLKSAGNTNLSIDFWCGTGKKTQKNRLMNTQHQMMRMGGVEALQPNLRTSIFPLDPFAIKEIDAVLASHDHADHIDVNVAAAVLQNCGEHVKFIGPQACVDLWLGWGVPQERCIVAKVGDVLEIGDVKIRVLDSFDRTALVTLPKGVSSYDKAILDGMDERAVNYLIETSGGSVYHSGDSHYSNYYAKHGNDYQIDVALLSYGENPRGVTDKMTSSDVLRAAESLDCQVVVPFHHDIWANFQNDPREIEVLWNMKKDRLQYQFAPFFWQVGGKYTYPTDKGRMHYQHFRGFQDIFKNEPELPYKAFL | soluble
15 | MSLAATIREVAALAGVAPGTVSNVLTGKKLVAEPLRKAVLDAIAQLDYRPNHLASSLRFGRTKSIGIVVPDMTNPFFSGLVRELELKAAKSGFQILLMSSYEEAAEERERIRALVSRQVDGLIISPSRDSIETSPHSAISGIPTVLVDRAFAVEGFDTVSADNEQATLMGARHLIELGHKRITFLATAPGLANMEERVSGYRKAMQDAGVSDANVVYGGLSIESCRSAIEQELRRAGRPTAVFASAYVATLGAAKAIRALDLAFPQDVSLLGFDDSDWMTVLRPYVSTIEQPLDELGHACWELLQRRMKKMDVPPVHRRIACTLRARESTREGHHHHHH | soluble
16 | MSLADKATIYIIDDDEIFQFITRKSFERLERNDNLFFFLNGEDALSSIKEAISGNKPSPDLIFLDINMPIMDGWDFLAELIKLEGEMKKTPQIYMVSSSIDDKDLIKSKTYNMIKDYIVKPIKDTHIKELLNNLNEGHHHHHH | soluble
17 | MSLADYLTVTHLTKYLKLKFDRDPYLERVYLTGQVSNFRKRPTHQYFSLKDESAVIQATMWAGVYKKLGFDLEEGMKINVIGRVQLYEPSGSYSIVIEKAEPDGIGALALQFEQLKKKLTAEGYFEQKHKQPLPQFVSKIGVITSPSGAVIRDIITTVSRRFPGVEILLFPTKVQGDGAAQEVVANIRRANQREDLDLLIVGRGGGSIEDLWAFNEEIVVQAIFESQLPVISSVGHETDTTLADFVADRRAATPTAAAELATPITKTDLMSWIVERQNRSYQACLRRIKQRQEWVDKLSQSVIFRQPERLYDAYLQKIDRLSMTLMNTMKDRLSSAKENKVQLDHALANSQLQTKIERYQDRVATAKRLLMANMASQYDSQLARFEKAQDALLSLDASRIIARGYAMIEKNQALVASVSQITKGDQLTIKMRDGQLDVEVKDVKNENIEGHHHHHH | not soluble
18 | MSLAEITDRDTALFESGIKLGALYHQFVGSPVNLSTAGSLEAAIRDSISLQPCVQSITVAIDREMVRGRINDFGYCELEGRMLGVEAVIRYGTAVVHVGMRYDAEMDYPMMSVQQIEQIGQIRQIEQDKQTEQIRQIRQTEVGEGHHHHHH | soluble
19 | MSLAEKICITEIDKLSQKLLRIETELNANIPTTLWISDLHGEGDRFKSILRGRFGMLYQTCKEGLPATFTPEKIQYLAKIVRKKNYFADSQQQMDRQDVILCFVQILKYKLTNSTNRNREIFLPEFRETIGRLLAGLPVPDPIFEESIISDRLIFHLSYAIRQVLLDRIQVLGDVFDRGSQPDKIIRILSSPAYKEMVDYVFGNHDILWMGAAAGTPSLVAETLRITCRYDHFRLLNRLRFDTSRLAEFAERTYEIKKATGKFKAKTDRGRAMEKALTVIQFKLEEKLINDFPHYGMEKRLWLERLAEMLKTGATEELNDSDFPTIDLENPSKLSKEESEIINDLIEQFRSNKYLKRLLKFFFEEGSTYHISNNFLNIHALVPSTKEGEFEEFMGHKGKDLLDYIQKVIRRTGQNYLYNREQSADDLALFFYLWCGPKSPFFGKHAMKTFERYFLLDKERHAEHSLYWQKNMQSDAFKEKMQEEFGIQRVIFGHTPVNYMQGNKMASEDGVAINVDGGFAAAYYNRGHALVHTPHQLYGIILPTPDELIKAAVRLEPAPLDIEFIDEFPQPLKIKNTIAGKLLQQERDLIMGKIQSYNSEGHHHHHH | soluble
